Reference: IntAct's records for PubMed 12897162

B1: DNA repair protein rad60 (Schizosaccharomyces pombe (strain ATCC 38366 / 972)), Q9USX3 (parent)
chain: MDNLDEDDLAFFSKPIKKPPLNYAKQLIASSSDSEEESELDTNKQALEHINAQKNITHNENKSAEPLSRQSTILDADEGNQDVSDTTPNACLNEGRHSPKSAISCVTQPVSPVYNTRAAANLRNNSINSEAALSTTSSLLDDDFARRLEEIDRQVQEFEKSSSDMDVQIHTHKREIEEDDDNTSADVPLLKHSKSDHSTLYHSKSEFSTNEPVISVVLQLAVIGQRIPNSNISLPRDWEAPLFFKVKSNQQFRRVRIAYSERKKVDNVVLVFQNQRLWDYGTPKGAGMLKVDTRLVVHAYCHSDFISLKRIKELEVEKLSSVTEDSTAQTCKLITLLLRSSKSEDLRLSIPVDFTVKDLIKRYCTEVKISFHERIRLEFEGEWLDPNDQVQSTELEDEDQVSVVLD
partner: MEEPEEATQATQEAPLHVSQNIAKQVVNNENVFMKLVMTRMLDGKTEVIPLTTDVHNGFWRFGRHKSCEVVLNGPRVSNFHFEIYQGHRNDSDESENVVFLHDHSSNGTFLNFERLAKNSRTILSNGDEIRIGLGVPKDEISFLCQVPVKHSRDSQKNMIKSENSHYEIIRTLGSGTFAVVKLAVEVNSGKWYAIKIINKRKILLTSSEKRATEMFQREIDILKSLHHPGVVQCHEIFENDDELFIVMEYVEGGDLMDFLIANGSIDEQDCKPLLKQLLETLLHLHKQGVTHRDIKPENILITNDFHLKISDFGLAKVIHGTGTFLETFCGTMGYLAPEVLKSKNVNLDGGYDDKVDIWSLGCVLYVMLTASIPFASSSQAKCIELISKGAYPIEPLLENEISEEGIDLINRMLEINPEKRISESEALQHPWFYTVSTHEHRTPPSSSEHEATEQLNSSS
B2: Serine/threonine-protein kinase cds1 (Schizosaccharomyces pombe (strain ATCC 38366 / 972)), Q09170 (parent)
chain: B1 partner
partner: B1 chain

Variants of: B1
Details: with rad53_schpo cds1, Q09170

| Variant | effect of a mutation on the interaction |
| --- | --- |
| MDNLDEDDLAFFSKPIKKPPLNYAKQLIASSSDSEEESELDTNKQALEHINAQKNITHNENKSAEPLSRQSAILDADEGNQDVSDTTPNACLNEGRHSPKSAISCVTQPVSPVYNTRAAANLRNNSINSEAALSTTSSLLDDDFARRLEEIDRQVQEFEKSSSDMDVQIHTHKREIEEDDDNTSADVPLLKHSKSDHSTLYHSKSEFSTNEPVISVVLQLAVIGQRIPNSNSSLPRDWEAPLFFKVKSNRQFRRVRIAYSERKKVDNVVLVFQNQRLWDYGTPKGAGMLKVDTRLVVHAYCHSDFISLKRINELEVEKLSSVTEDSTAQTCKLITLLLRSSKSEDLRLSIPVDFTVKDLIKRYCTEVKISFHERIRLEFEGEWLDPNDQVQSTELEDEDQVSVVLD [T72A;I232S;Q250R;K312N] | disrupting interaction |

Variants of: B2
Details: with rad60_schpo rad60, Q9USX3

| Variant | effect of a mutation on the interaction |
| --- | --- |
| MEEPEEATQATQEAPLHVSQNIAKQVVNNENVFMKLVMTRMLDGKTEVIPLTTDVHNGFWRFGRHKSCEVVLNGPRVANFAFEIYQGHRNDSDESENVVFLHDHSSNGTFLNFERLAKNSRTILSNGDEIRIGLGVPKDEISFLCQVPVKHSRDSQKNMIKSENSHYEIIRTLGSGTFAVVKLAVEVNSGKWYAIKIINKRKILLTSSEKRATEMFQREIDILKSLHHPGVVQCHEIFENDDELFIVMEYVEGGDLMDFLIANGSIDEQDCKPLLKQLLETLLHLHKQGVTHRDIKPENILITNDFHLKISDFGLAKVIHGTGTFLETFCGTMGYLAPEVLKSKNVNLDGGYDDKVDIWSLGCVLYVMLTASIPFASSSQAKCIELISKGAYPIEPLLENEISEEGIDLINRMLEINPEKRISESEALQHPWFYTVSTHEHRTPPSSSEHEATEQLNSSS [S78A;H81A] | disrupting interaction |
